In paper PMC10849721 (bioRxiv, 2024):

B1: Kv5.1 (natural protein)
chain: MDASAEQSLPEPGSQDSVAGEDIEIVVNVGGVRQVLYGDLLSQYPETRLAELINCLAGGYDTIFSLCDDYDPGKREFYFDRDPDAFKCVIEVYYFGEVHMKKGICPICFKNEMDFWKVDLKFLDDCCKSHLSEKREELEEIARRVQLILDDLGVDAAEGRWRRCQKCVWKFLEKPESSCPARVVAVLSFLLILVSSVVMCMGTIPELQVVDSEGNRVEHPTLENVETACIGWFTLEYLLRLFSSPNKLHFALSFMNIVDVLAILPFYVSLTLTHLGARMMELTNVQQAVQALRIMRIARIFKLARHSSGLQTLTYALKRSFKELGLLLMYLAVGIFVFSALGYTMEQSHPETLFKSIPQSFWWAIITMTTVGYGDIYPKTTLGKLNAAISFLCGVIAIALPIHPIINNFVRYYNKQRVLETAAKHELELMELNSSSAEGKPGGSRSDLDTLPPEPAAREGPSWGSRLKLSHSDTFIPLLTEEKHHRTRLQSCK
B2: Kv2.2 (natural protein)
chain: MAEKAPPGLNRKTSRSTLSLPPEPVDIIRSKTCSRRVKINVGGLNHEVLWRTLDRLPRTRLGKLRDCNTHESLLEVCDDYNLNENEYFFDRHPGAFTSILNFYRTGKLHMMEEMCALSFGQELDYWGIDEIYLESCCQARYHQKKEQMNEELRREAETMREREGEEFDNTCCPEKRKKLWDLLEKPNSSVAAKILAIVSILFIVLSTIALSLNTLPELQENDEFGQPSDNRKLAHVEAVCIAWFTMEYLLRFLSSPNKWKFFKGPLNVIDLLAILPYYVTIFLTESNKSVLQFQNVRRVVQIFRIMRILRILKLARHSTGLQSLGFTLRRSYNELGLLILFLAMGIMIFSSLVFFAEKDEDATKFTSIPASFWWATITMTTVGYGDIYPKTLLGKIVGGLCCIAGVLVIALPIPIIVNNFSEFYKEQKRQEKAIKRREALERAKRNGSIVSMNLKDAFARSMELIDVAVEKAGESANTKDSVDDNHLSPSRWKWARKALSETSSNKSYENKYQEVSQNDSHEHLNNTSSSSPQHLSAQKLEMLYNEITKTQPHSHPNPDCQEQPERPCVYEEEIEMEEVICPQEQLAVAQTEVIVDMKSTSSIDSFTSCATDFTETERSPLPPPSASHLQMKFPTDLPGTDEHQRARAPPFLTLSRDKGPAAREAAVDYAPIDITVNLDAGASHGPLQPDSASDSPKSSLKGSNPLKSRSLKVNFQENRASAPQTPPSTARPLPVTTADFPLTTPQHMSTILLEEALPQGQPPLLEADDSAHCQGPSKGFSPRFPKQKLFPFSSRERRSFTEIDTGEDEDFLDLQRSRPDKQADPSPNCLADKPGDARDSLREEGCVGSSSPQNTDHNCRQDIYQAVGEVKKDSSQEGYKMENHLFAPEIHSNPGDTGHCPTRETSM

Assays:
Kv2.2 = target: B2; assay: co-IP
Kv5.1 = target: B1; assay: co-IP

Row | percent co-IPed, relative to the subunit's own IP (Kv2.2) [%] | percent co-IPed, relative to the subunit's own IP (Kv5.1) [%] | Binder
1 | 31 | – | B1
2 | – | 7.4 | B2
